The results in this text go back to patent publication EP1987837A1 (Technische Universität Dresden Medizinische Fakultät Carl …, dated 2008).

Data set [1] deals with endogenous β2-syntrophin (rat) (UniProt P01322). Nature of the data set: cell-based or functional assay.
Data set [2] deals with the molecule itself. Nature of the data set: co-immunoprecipitation from INS-1E cells.
The next data set deals with T1, 35S-ICA512601-979 (Homo sapiens (Human), UniProt Q16849 601-979, 35S-methionine labelled).
T1 construct: also called cytoplasmic portion of ICA512
T1 sequence: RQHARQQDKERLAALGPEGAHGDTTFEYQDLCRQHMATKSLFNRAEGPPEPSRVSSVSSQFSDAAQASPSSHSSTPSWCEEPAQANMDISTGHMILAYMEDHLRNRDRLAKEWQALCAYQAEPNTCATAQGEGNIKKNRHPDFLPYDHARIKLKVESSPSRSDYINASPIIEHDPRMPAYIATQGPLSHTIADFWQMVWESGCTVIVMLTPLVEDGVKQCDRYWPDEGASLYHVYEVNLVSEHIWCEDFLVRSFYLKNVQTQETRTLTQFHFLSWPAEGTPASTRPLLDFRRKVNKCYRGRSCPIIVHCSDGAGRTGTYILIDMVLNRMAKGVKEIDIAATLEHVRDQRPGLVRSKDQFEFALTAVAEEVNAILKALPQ
Nature of the data set: GST pull-down, SDS-PAGE and autoradiography.

Another data set concerns the target T2, 35S-ICA512700-979 (Homo sapiens (Human), UniProt Q16849 700-979, 35S-methionine labelled).
T2 construct: In vitro transcribed and translated from pET28a; also called PTP portion of ICA512
T2 sequence: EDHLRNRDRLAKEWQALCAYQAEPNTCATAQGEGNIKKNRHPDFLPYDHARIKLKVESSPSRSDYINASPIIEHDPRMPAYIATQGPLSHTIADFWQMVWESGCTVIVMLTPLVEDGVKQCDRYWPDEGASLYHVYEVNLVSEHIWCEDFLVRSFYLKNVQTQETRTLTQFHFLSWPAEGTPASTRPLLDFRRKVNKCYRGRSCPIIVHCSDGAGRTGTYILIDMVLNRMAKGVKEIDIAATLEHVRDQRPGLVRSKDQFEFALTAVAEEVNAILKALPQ
Nature of the data set: GST pull-down, SDS-PAGE and autoradiography.

In another data set the target is T3, 35S-Luciferase (firefly, UniProt P08659 1-550 = luciferase, 35S-methionine labelled).
T3 construct: Control protein in the pull-down assays; also called firefly luciferase; control protein
Nature of the data set: GST pull-down, SDS-PAGE and autoradiography.

T3 sequence (P08659 whole entry): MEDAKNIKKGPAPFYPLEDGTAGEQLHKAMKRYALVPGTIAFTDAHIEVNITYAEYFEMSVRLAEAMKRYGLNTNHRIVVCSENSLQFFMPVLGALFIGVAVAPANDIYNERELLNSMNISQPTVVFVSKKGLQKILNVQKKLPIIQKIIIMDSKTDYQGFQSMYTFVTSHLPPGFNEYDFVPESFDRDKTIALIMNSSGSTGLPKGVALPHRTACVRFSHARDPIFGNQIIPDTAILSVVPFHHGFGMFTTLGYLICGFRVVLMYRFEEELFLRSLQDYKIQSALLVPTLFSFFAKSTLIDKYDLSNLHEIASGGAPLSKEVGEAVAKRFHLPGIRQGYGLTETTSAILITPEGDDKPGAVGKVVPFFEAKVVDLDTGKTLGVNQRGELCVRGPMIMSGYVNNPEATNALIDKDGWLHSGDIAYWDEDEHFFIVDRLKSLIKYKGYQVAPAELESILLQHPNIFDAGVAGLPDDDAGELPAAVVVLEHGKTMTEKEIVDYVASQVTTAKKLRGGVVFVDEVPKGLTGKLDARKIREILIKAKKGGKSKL

In turn, “ICA512-TMF (from UniProt Q63259 41-983) (receptor)” came in with an insulin stimulation index after knockdown of β2-syntrophin, compared to control cells in data set [1] of 34%.

B1: pro-ICA512 (receptor, rat, UniProt Q63259 41-983, looked up)
chain: ISAHGCLFDRRLCSHLEVCIQDGLFGQCQAGVGQARPLLQVTSPVLQRLQGVLRQLMSQGLSWHDDLTQYVISQEMERIPRLRPPEPHPRDRSGSVPRRAGPAGELLSQGNPTGSSPAVQGLSRPPGDGNGAGVGSPLSSLQAELLPPLLEHLLMPPQPPHPSLTYEPALLQPYLFQQFGSRDGSRGSESASGVVGHLAKAEDPVLFSRSLSKAILGTHSGHSFGDLTGPSPAQLFQDSGLLYMAQELPVPGRARAPRLPEEGGSSRAEDSSEGHEEEVLGGHGEKSPPQAVQADVSLQRLAAVLAGYGVELRQLTPEQLSTLLTLLQLLPKGTGRHLGGAVNGGADVKKTIEEQMQRGDTADARPPTPLLPGHPTASSTSIKVRQVLSPGFPEPPKTSSPLGISAVLLEKKSPLGQSQPTVVGQPSARPSAEEYGYIVTDQKPLSLVAGVKLLEILAEHVHMTSGSFINISVVGPAVTFRIRHNEQNLSLADVTQQAGLVKSELEAQTGLQILQTGVGQREESAAVLPRQAHGISPMRSLLLTLVALAGVAGLLVALAVALCMRHHSKQRDKERLAALGPEGAHGDTTFEYQDLCRQHMATKSLFNRAEGQPEPSRVSSVSSQFSDAAQASPSSHSSTPSWCEEPAQANMDISTGHMILAYMEDHLRNRDRLAKEWQALCAYQAEPNTCATAQGEGNIKKNRHPDFLPYDHARIKLKVESSPSRSDYINASPIIEHDPRMPAYIATQGPLSHTIADFWQMVWESGCTVIVMLTPLVEDGVKQCDRYWPDEGSSLYHVYEVNLVSEHIWCEDFLVRSFYLKNVQTQETRTLTQFHFLSWPAEGTPASTRPLLDFRRKVNKCYRGRSCPIIVHCSDGAGRTGTYILIDMVLNRMAKGVKEIDIAATLEHVRDQRPGLVRSKDQFEFALTAVAEEVNAILKALPQ
notes: In cells expressing ICA512-GFP, one partner may be the GFP-tagged form; also called pro-form of ICA512, glycoprotein of 110 kDa
Take B1: the binding result in data set [2] is on record as “no binding”.

B2: GST-ICA512800-979 (other)
chain: ESGCTVIVMLTPLVEDGVKQCDRYWPDEGASLYHVYEVNLVSEHIWCEDFLVRSFYLKNVQTQETRTLTQFHFLSWPAEGTPASTRPLLDFRRKVNKCYRGRSCPIIVHCSDGAGRTGTYILIDMVLNRMAKGVKEIDIAATLEHVRDQRPGLVRSKDQFEFALTAVAEEVNAILKALPQ
notes: Bacterially expressed, on glutathione sepharose beads; not shown: glutathione S-transferase (GST) fusion partner
B2: the binding result in the data set with 35S-ICA512601-979 and in the data set with 35S-ICA512700-979 was “no binding” each time.

B3: GST-ICA512601-979 (other)
chain: T1 sequence
notes: Bacterially expressed, coupled to glutathione sepharose beads (1 µg); The construct is only cited (Ort et al., 2000); not shown: glutathione S-transferase (GST) fusion partner
As to B3, the binding result with 35S-Luciferase was “no binding”.
